According to patent US20170247437A1 (ONCOMED PHARMACEUTICALS, published 2017):

Assays:
[1] = biological target: FLAG-RSPO1furin-CD4TM-GFP (human) (UniProt Q2MKA7); assay: FACS on HEK-293 cells transiently expressing FLAG-RSPO1furin-CD4TM-GFP; secondary APC-conjugated anti-IgG alone, no primary antibody
[2] = biological target: T1, recombinant human RSPO1 (R&D Systems) (human, UniProt Q2MKA7 21-263); assay: ELISA on plate-coated recombinant human RSPO1, anti-human IgG Fc-HRP detection, 4-parameter fit, 3 runs
T1 construct: Bought protein
T1 sequence (Q2MKA7 21-263 limits assumed): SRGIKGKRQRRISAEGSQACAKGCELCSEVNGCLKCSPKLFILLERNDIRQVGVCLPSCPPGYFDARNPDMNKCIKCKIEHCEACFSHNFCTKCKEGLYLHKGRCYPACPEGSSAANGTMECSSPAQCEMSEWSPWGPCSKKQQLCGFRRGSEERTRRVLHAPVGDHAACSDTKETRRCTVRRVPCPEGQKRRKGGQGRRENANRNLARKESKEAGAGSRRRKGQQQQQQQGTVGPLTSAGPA
Protocol: High binding 96 well plates (Nalge Nunc International) were coated with […] recombinant human RSPO1 (R&D Systems) in coating buffer (1× PBS, pH 7.4) overnight at 2-8° C. The plates were washed 3-6 times after each step with 300 μl/well of 1× PBS, 0.05% Tween-20, pH 7.4. After coating, the plates were incubated with 250 μl/well of blocking buffer (1× PBS, 0.1% gelatin, 0.1% TWEEN-20, pH 7.4) for 60 minutes ±10 minutes at room temperature (19-25° C.). Plates were washed and incubated with 100 μl/well of first generation humanized anti-RSPO1 antibody h89M5-H2L2 and second generation humanized antibody h89M5-H8L5 for 120 minutes ±10 minutes at room temperature. First generation humanized anti-RSPO1 antibody h89M5-H2L2 was use as the reference standard and the positive control. The antibodies were prepared at an initial concentration of 2.5 μg/ml and diluted 3-fold serially, ranging from 2.5 μg/ml to […]. Each sample was tested in duplicate and the experiment was run 3 times. […] The binding of the antibodies to RSPO1 was measured by absorbance at 450 nm and 650 nm using an ELISA plate reader (Molecular Devices). The results were analyzed using a 4-parameter curve fit, and relative binding potency was determined by comparing EC₅₀ values of the reference to that of the samples.

Chain of FLAG-RSPO1furin-CD4TM-GFP (human) (Q2MKA7 34-135): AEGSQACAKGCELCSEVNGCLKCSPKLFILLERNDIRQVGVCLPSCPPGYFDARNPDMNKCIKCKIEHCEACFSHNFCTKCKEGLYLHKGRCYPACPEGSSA

Row | Molecule | MFI [1] | mean relative binding potency (EC50 against reference h89M5-H2L2) [2]
1 | Secondary Ab Control (antibody) | 3.2 | 
2 | second generation humanized anti-RSPO1 antibody h89M5-H8L5 (antibody, human IgG1, kappa, V domains shown, Humanized version of mouse antibody 89M5, with the same CDRs as h89M5-H2L2; also called h89R5-H8L5) VH: EVQLVQSGAEVKKPGESLRISCKGSGYSFTGYTMHWVRQMPGKGLEWMGGINPNNGGTTYNQNFKGHVTISADKSISTAYLQWSSLKASDTAMYYCARKEFSDGYYFFAYWGQGTLVTVSS VL: DIVMTQSPDSLAVSLGERATINCKASQDVIFAVAWYQQKPGQPPKLLIYWASTRHTGVPDRFSGSGSGTDFTLTISSLQAEDVAVYYCQQHYSTPWTFGGGTKVEIKR |  | 120%
